Assay results: US20230144459A1, “SHEDDING BLOCKING AGENTS WITH INCREASED STABILITY” (BIOND BIOLOGICS LTD., priority 2020, published 2023)

B1: 4A1: VHH clone binding the stalk region of human CD28, SEQ ID NO: 35 (protein)
VHH: QVQLVESGGGLVQAGGSLRLSCAASGSIFSINAMGWYRQAPGKQRERVAAITSGGSTNYADSVKGRFTISRDNAKNTVYLQMNNLEPRDAGVYYCVVDLYGEDYWIWGQGTQVTVSSAAAHHHHHH
B2: 4A4: VHH clone binding the stalk region of human CD28, SEQ ID NO: 34 (protein)
VHH: EVQLVESGGGLVQAGGSLRLSCAASGSLFSINAMAWYRQAPGKQRELVAAITSSGSTNYANSVKGRFTVSRDNAKNTMYLQMNSLKPEDTAVYYCVVDEYGSDYWIWGQGTQVTVSSAAAHHHHHH

Experiments:
[1] = target: T1, human CD28 stalk region dimeric peptide (Homo sapiens, UniProt P10747); assay: CD28 stalk region binding assay (ELISA), wild-type peptide; details: serial dilution ELISA
T1 construct: purchased Genecust Europe (custom synthesis, stated for the tagged peptide); host or cells: synthetic peptide

CD28 shedding in PBMC = target: T2, CD28 shedding in PBMC (Homo sapiens, UniProt P10747); assay: CD28 shedding in PBMC activated by superantigen (SEB); type: cell-based; details: 1 ng/mL SEB; 0.4-50 μg/mL
T2 construct: endogenous in cells; host or cells: CD4 T cells and PBMCs from fresh blood of healthy donors
Method: FIG. 9. […] Levels of soluble CD28 were measured in culture media of isolated PBMC stimulated with 1 ng/mL SEB (light grey bar). […] The levels of soluble human CD28 in the supernatant were quantified with standardized sandwich ELISA (R&D system).
Cellular assays evaluating anti shedding activity of VHH—For SEB activation of PBMCs, 0.1×10^6 PBMCs were stimulated with […] SEB (Sigma, Cat. No. S4881) for 5-7 days at 37° C. with/without the indicated concentrations of various treatments in 96 well plates. For PHA activated T cells, 0.1×10^6 CD4 T cells were incubated with the indicated concentration of Phytohemagglutinin (Sigma, Cat. No. L8902) and 200 IU/mL of IL-2 (Proleukine) for 5-7 days at 37° C. with/without the indicated concentrations of various treatments in 96 well plates. For HEK spontaneous CD28 shedding assay, 0.1×10^5 HEK cells were incubated for 48 hours at 37° C. with/without the indicated concentrations of various treatments in 96 well plates.

[2] = target: T3, CD28 shedding in HEK cells overexpressing human CD28 (Homo sapiens, UniProt P10747); assay: HEK spontaneous CD28 shedding assay; type: cell-based; details: 48 hr, 3.3-100 μg/mL
T3 construct: HEK293 cells overexpressing human full-length CD28 were analyzed; expressed in transfected cells

[3] = target: T4, CD28 shedding in isolated human CD4 T cells (Homo sapiens, UniProt P10747); assay: CD28 shedding in isolated CD4 T cells activated by PHA and IL2; type: cell-based; details: 5 μg/mL PHA, 200 IU/mL IL-2; 0.4-50 μg/mL
T4 construct: endogenous in cells; host or cells: CD4 T cells and PBMCs from fresh blood of healthy donors

| Molecule | binding to human CD28 stalk region peptide (in words) [1] | inhibition of CD28 shedding, PBMC activated by SEB (CD28 shedding in PBMC) | inhibition of CD28 shedding, HEK cells overexpressing human CD28 [2] | inhibition of CD28 shedding, CD4 T cells activated by PHA and IL2 [3] |
| --- | --- | --- | --- | --- |
| B1 | bind specifically | – | – | – |
| B2 | bind specifically | inhibit CD28 shedding | inhibit CD28 shedding | inhibit CD28 shedding |
